Measurements as given in the supplement of paper PMC9170038.

Key:
MS2 coat protein [1] = test: apparent KD of MS2 coat protein, switch ON state; designed switch direction (-1 OFF switch, 1 ON switch): -1; higher = weaker reporter binding; settings: FMN input: 0 or 200 uM; Eterna round: R93 (includes R88 designs)
Method in brief: (§1)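 The designed RNA switches were transcribed on-chip from Illumina sequencing clusters. In 100 mM Tris-HCl pH 7.5, 80 mM KCl and 4 mM MgCl2, without or with constant ligand, they were titrated with SNAP-549-labelled MS2 coat protein from 0.7 or 1.5 nM to 3 µM in twofold steps. Apparent KD is the per-design median of normalised cluster binding-curve fits.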

MS2 coat protein [2] = test: apparent KD of MS2 coat protein, switch OFF state (with FMN for OFF switches, without FMN for ON switches); designed switch direction (-1 OFF switch, 1 ON switch): -1; higher = weaker reporter binding; settings: FMN input: 0 or 200 uM; Eterna round: R93 (includes R88 designs)
Method in brief: as §1

Sequence	apparent KD of MS2 coat protein (MS2 coat protein [1]) [nM]	apparent KD of MS2 coat protein (MS2 coat protein [2]) [nM]
AGCAAGAGAGGAUAUACAUAAAAAAAAAAAGUCUGAUCCCUACAUGAGGAUCACCCAUGUAGAAGGCUCUGGCA [Ex2 Design 156: Sub-opt 20]	28.8	26.2
AGCUAGUCAGGAUAUACAAAAUGAUUGCAAAAGCAAUCAACACAUGAGGAUCACCCAUGUAGAAGGGACUAGCA [Mat - Exclusion 2 - JL-Eli mod - D44]	19	19.4
AGCUAGUCAGGAUAUACAAACAUGUCAAAAGACGUGAAAAGACAUGAGGAUCACCCAUGUAGAAGGGACUAGCA [Mat - Exclusion 2 - JL mod - D14]	29.8	90.5
AGCUAGUCAGGAUAUACGAACAGGUCAAAAGACUUGAAGGGACAUGAGGAUCACCCAUGUAGAAGGGACUAGCA [Mat - Exclusion 2 - JL mod - D25]	32.2	128
AGCUAGUCAGGAUAUACGAACAUGUCACAAGACGUGAAGGGACAUGAGGAUCACCCAUGUAGAAGGGACUAGCA [74%, Web mod - With 1 more C's]	52.9	203
AGCUAGUCAGGAUAUACGCAAACGAACGAAGCAGUGAAGGGACAUGAGGAUCACCCAUGUAGAAGGGACUAGCA [Diamond 30]	26.8	75.5
AGGAAACAUGAGGAUCACCCAUGUAAGGAUAUGAACGAAAAUAAAUAAAAAUAAAAGUUCAGAAGGUACGAAAA [66%, Wbt, 7]	30.7	55.1
AGGAAACAUGAGGAUCACCCAUGUCAGGAUAUUUGAAAGAAAAGAAAAGAAAGAAGAAGAAGAAGGGACAAGAA [Narmer]	27.6	31.1
AGGAAACAUGAGGAUCACCCAUGUGAGGAUAUAGAAAAGAAAAGAAAAGAAAGAAGAACUAGAAGGUACAAGAA [Menkauhor Kaiu]	21	26.8
AGGAAACAUGAGGAUCACCCAUGUGAGGAUAUGUAAAAGAAAAGAAAAGAAAGAAGAAACAGAAGGCACAAGAA [Nynetjer]	49.4	49.1
AGGAAGUGAGGAUAUGCAUCAUAUAGUGGACGCUAUAGGAUGUAGAAGGCACAUGAGGAUCACCCAUGUUUAAA [EX4 Malc#40]	29	32
AGGAUGUCAGGAUAUGCGUGAAGAAUAAAACAAAUAACAACGCAGAAGGGACAUGAGGAUCACCCAUGUUAAGA [May 46]	45.2	68.3
AGGAUGUCAGGAUAUGUGUAAAGAAUAAAACAAAUAACAACACAGAAGGGACAUGAGGAUCACCCAUGUUACGA [May 43]	31.1	37.3
AGGAUGUCAGGAUAUGUGUAAAGAAUAAAAGAAAUAACAACACAGAAGGGACAUGAGGAUCACCCAUGUUAAAA [May 35]	48.8	44.3
AGGGAGUCAGGAUAUCGGAAAACAAAACAACGAAAAAAAGACGAGAAGGGACAUGAGGAUCACCCAUGUAAGAA [milkweed 17]	41.4	21.6
AGGGAGUGAGGAUAUGCGAAAGAAAAAGAAGGAAAAAAAAAGCAGAAGGUACAUGAGGAUCACCCAUGUAAAAA [milkweed 7]	26.5	16.9
AGUCAUACAGGAUAUACAUGAGGAUCACCCAUGUUUAUCCUAAAAGGGUGAUCCUCAUGUAGAAGGGUAUGACA [EX3 209: Super Stable 9]	23.7	14.5
AGUGAGUGAGGAUAUUACUGAAGAAUAAAAGAAAUAACAAGUAAGAAGGCACAUGAGGAUCACCCAUGUACACA [May 61]	22.4	22
AGUUGGCGAGGAUAUACAUGAGGAUCACCCAUGUAAAAUAAAUAAAAAGGGAAAAAGAGUAGAAGGCGCUGACA [73%, Moding Norbert Elias, 8]	42.6	192
AGUUGGCGAGGAUAUACAUGAGGAUCACCCAUGUGGAAGAAAAAAGUGAGAAAGAAAAGUAGAAGGCGCUGACA [Mat - Exclusion 3 - Lego mod - D87]	67.5	316

Sequence	apparent KD of MS2 coat protein (MS2 coat protein [1]) [nM]	apparent KD of MS2 coat protein (MS2 coat protein [2]) [nM]
AUAAAACAUGAGGAUCACCCAUGUGAGGAUAUCUGAAAAAAAAAAAGAAAAAAAAAAAAGAGAAGGCACAAUAA [Amethyst 44]	65.1	79.4
AUAAAACAUGAGGAUCACCCAUGUGAGGAUAUGCGAAAUAAAGAAAUAAAUAAAUAAAGCAGAAGGCACAAUAA [Ex 1 Tesla 1]	34.6	21.9
AUAAAGUGAGGAUAUGCUAAGAAGUAAAUAGACAAAUAAAUGCAGAAGGCACAUGAGGAUCACCCAUGUAAGAA [Ex 4 Tesla 4]	35.9	26.2
AUCUACCUAGGAUAUACAUGAGGAUCACCCAUGUACAGUUUCAACUAGGGAAACUCACGUAGAAGGAGGUAGAU [JR_Exc003_Sub1209]	48.2	25.2
AUGGUACAUGAGGAUCACCCAUGUCAGGAUAUCGGCUAAAACGUAAAAAAAAUAAAAGCGAGAAGGGACUGCUC [EX1 Malc#18 Mod 8 - Jieux - Exclusion 1]	24	28.3
CAAAAGGAAGGAUAUACAUAAUAAAACGGGCGGGCACCUUAACAUGAGGAUCACCCAUGUAGAAGGUCCAAUAC [Onesmabe]	15.7	18.6
CAGAGACAUGAGGAUCACCCAUGUUAGGAUAUGCGUGUAUGCUAAAAAAAGUUAACAAGCAGAAGGAACAGAGG [JR_Exc001_Sub309]	24.3	64.2
CAGGUAUGAGGAUAUACAUAGAUACAGACACAUGUUCAAGUACAUGAGGAUCACCCAUGUAGAAGGCAUAUAUG [Mat - Same state - Mayanna Mod - D106]	22.3	35.1
CCGAGGCGAGGAUAUAUGAAGGACACAACAUUUAGGGUAAGACAUGAGGAUCACCCAUGUAGAAGGCGCGACGC [Ex2_Neo]	74.5	38.7
CCUAAGAAAGGAUAUACACCGGUGAACCGCUGAAAUCAGCAACAUGAGGAUCACCCAUGUAGAAGGUUUAUGGG [Erusqu]	237	133
CCUACGUGAGGAUAUGCGGAUAACACGUUAGACAAAUAGACGCAGAAGGCACAUGAGGAUCACCCAUGUGAACC [JR_Exc004_Sub317]	21.9	17.6
CCUCGACAUGAGGAUCACCCAUGUUAGGAUAUAUACAAACCCGAAAACCAAGGGCAAAAUAGAAGGAACGUGCA [Masoedma]	14.8	19.2
CUCAAGUUAGGAUAUACAAGAAAAGAAGAGAAAGAAAAGAAGUAGAAGGAACAUGAGGAUCACCCAUGUAAGAA [EteRNA is fun!]	33.2	25.7
CUCAUGUAAGGAUAUGACUACAUAAAAAAAAAAAAAUGUAGUCAGAAGGUACAUGAGGAUCACCCAUGUACAAA [Brourd - Exclusion 4 - Sub 3]	59	25.2
CUCAUGUCAGGAUAUGUAGCAUGAUACGAAAGUAUCAUGCUACAGAAGGGACAUGAGGAUCACCCAUGUCAAAA [Ex4: 943]	22.1	17.5
CUCAUGUCAGGAUAUGUCAAAAGUCACAAAAGUGACAAAAGACAGAAGGGACAUGAGGAUCACCCAUGUAAAAA [Starry Exclusion 4.6 (starryjess round 1 mod)]	20.6	15.5
CUCAUGUUAGGAUAUAAAUGAAAUGAAGUGAAAGAAAAGAAUUAGAAGGAACAUGAGGAUCACCCAUGUUAGAA [EteRNA is fun!]	47.8	37.6
CUCUUGUCAGGAUAUCAAAGAAAAGAAGAGAAAGAAAAGAAUGAGAAGGGACAUGAGGAUCACCCAUGUAAGAA [EteRNA is fun!]	48.1	51.7
GAAAAACAUGAGGAUCACCCAUGUAAGGAUAUGCGAAAAUAAAAUAAAAUAAAAUAAAGCAGAAGGUACAAAAG [Mat - Exclusion 1 - Eli mod - D2]	34.7	58.4
GAAAAACAUGAGGAUCACCCAUGUUAGGAUAUGCUAUGGAAAAAUAAAAUAAAACAUAGCAGAAGGGACAAAAG [Mat - Exclusion 1 - Eli mod - D29]	24.7	88.5
